The numbers were not newly measured in paper PMC6277024, which cites them from elsewhere.

This series concerns the target WRESAI hexapeptide.

On to Tip-1 PDZ (from UniProt O14907), for which the Kd was 10 nM.

A word on the Kd: it is the constant that tells how readily two partners part at equilibrium.
